Data from patent US12729239B2, “Anti-CEACAM5 antibodies and conjugates and uses thereof” (Merck Patent GmbH, priority 2020, dated 2026).

Assays:
[1] = system: MDA-MB-231; assay: Viability assay (Cell Titer-Glo), MDA-MB-231; assay type: cell-based; conditions: Homo sapiens, read-out: Maximal effect compared to untreated controls at the highest tested concentration
Description: Cytotoxicity effects of the ADC on the cancer cell lines were measured by cell viability assays. Cells were seeded in a volume of 90 μL in 96-well plates the day before treatment. Test compounds (ADCs or free payloads) were formulated at 10-fold the starting concentration in cell culture medium. Test compounds were serial diluted (1:4) and 10 μL of each dilution was added to the cells in triplicates. Plates were cultured at 37° C. in a CO2 incubator for six days. For cell viability measurement, Cell Titer-Glo® reagent (Promega™ Corp, Madison, WI) was added to each well, and plates processed according to the manufacturer's instructions. Luminescence signals were measured using a Varioskan plate reader (Thermo Fisher). Luminescence readings were converted to % viability relative to untreated cells. Data was fitted with non-linear regression analysis, using log (inhibitor) vs. response, variable slope, 4-parameter fit equation using GraphPad Prism. Data is shown as % relative cell viability vs. molar compound concentration, error bars indicating standard deviation (SD) of triplicates. Geometric mean values of IC50s derived from multiple experiments were calculated.

[2] = in vivo; cited from earlier work
[3] = in vivo; cited from earlier work; remark: listed apart in the source
[4] = system: CEACAM5 from Macaca fascicularis; conditions: cited from earlier work
[5] = target: T1, CEACAM-5 epitope in FFPE tissues/cells (Homo sapiens, UniProt P06731); assay: IHC staining on FFPE cancer cell lines versus CEACAM5 mRNA expression; assay type: binding; conditions: 104 cancer cell lines, CCLE dataset
T1 construct: formaldehyde fixed paraffin embedded (FFPE) cancer cell line microarrays (CMAs) and human tumor tissues; endogenous in cells; host or cells: 104 FFPE cancer cell lines (microarray)
T1 sequence (P06731 35-676): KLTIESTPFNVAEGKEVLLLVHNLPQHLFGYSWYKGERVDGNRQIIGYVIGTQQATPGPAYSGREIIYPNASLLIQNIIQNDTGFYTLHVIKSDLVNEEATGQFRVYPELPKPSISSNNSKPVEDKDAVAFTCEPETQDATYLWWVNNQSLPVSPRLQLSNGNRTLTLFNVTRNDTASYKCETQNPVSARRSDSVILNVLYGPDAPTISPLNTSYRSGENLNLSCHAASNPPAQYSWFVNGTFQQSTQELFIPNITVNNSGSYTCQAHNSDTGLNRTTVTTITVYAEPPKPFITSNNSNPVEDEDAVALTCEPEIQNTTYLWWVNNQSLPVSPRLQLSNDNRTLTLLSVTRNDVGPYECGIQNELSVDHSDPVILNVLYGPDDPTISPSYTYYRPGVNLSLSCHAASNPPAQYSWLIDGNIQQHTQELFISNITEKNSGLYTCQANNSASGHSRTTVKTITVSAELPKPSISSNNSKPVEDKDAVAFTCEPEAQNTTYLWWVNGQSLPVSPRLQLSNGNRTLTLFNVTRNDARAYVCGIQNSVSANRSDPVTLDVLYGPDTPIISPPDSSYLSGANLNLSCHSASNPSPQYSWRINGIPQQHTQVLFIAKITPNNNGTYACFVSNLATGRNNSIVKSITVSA
Description: For the IHC staining with the anti-CEACAM-5 antibody rb8G4, sections of 4 μm from formaldehyde fixed paraffin embedded (FFPE) cancer cell line microarrays (CMAs) and human tumor tissues were mounted on charged slides (SuperFrost Ultra Plus, Thermo Fisher Scientific or TOMO, Matsunami). The staining procedure was performed using a Discovery XT (Roche Diagnostics) staining platform. Following deparaffinization, the sections were heated for epitope retrieval in Tris-EDTA buffer pH 8 (CC1, Roche Diagnostics). The sections were incubated with the primary monoclonal antibody rb8G4 diluted to 0.5 or 0.7 μg/ml in phosphate-buffered saline (PBS) or antibody diluent buffer (DCS). The clone DA1E (rabbit monoclonal IgG, NEB) served as isotype control antibody. The primary antibodies were followed by the HQ anti-rabbit IgG detection kit (Roche Diagnostics). […]
CMAs and the TMA with human organ tissue were stained and scanned with the NanoZoomer (Hamamatsu) with a resolution of 0.46 μm/pixel. […] The scans of the CMAs were analyzed with the image analysis software HALO (Indica Labs, USA). For the determination of the amount of antigen present, positive brown stained area was calculated as percent area of the viable tissue area. Staining (arbitrary units) is calculated as Antibody staining (AU)=% positive tissue area*Average optic density (OD ranges from 0 to 1) of the brown colour. […]

Chain of CEACAM5 from Macaca fascicularis (as listed by the source): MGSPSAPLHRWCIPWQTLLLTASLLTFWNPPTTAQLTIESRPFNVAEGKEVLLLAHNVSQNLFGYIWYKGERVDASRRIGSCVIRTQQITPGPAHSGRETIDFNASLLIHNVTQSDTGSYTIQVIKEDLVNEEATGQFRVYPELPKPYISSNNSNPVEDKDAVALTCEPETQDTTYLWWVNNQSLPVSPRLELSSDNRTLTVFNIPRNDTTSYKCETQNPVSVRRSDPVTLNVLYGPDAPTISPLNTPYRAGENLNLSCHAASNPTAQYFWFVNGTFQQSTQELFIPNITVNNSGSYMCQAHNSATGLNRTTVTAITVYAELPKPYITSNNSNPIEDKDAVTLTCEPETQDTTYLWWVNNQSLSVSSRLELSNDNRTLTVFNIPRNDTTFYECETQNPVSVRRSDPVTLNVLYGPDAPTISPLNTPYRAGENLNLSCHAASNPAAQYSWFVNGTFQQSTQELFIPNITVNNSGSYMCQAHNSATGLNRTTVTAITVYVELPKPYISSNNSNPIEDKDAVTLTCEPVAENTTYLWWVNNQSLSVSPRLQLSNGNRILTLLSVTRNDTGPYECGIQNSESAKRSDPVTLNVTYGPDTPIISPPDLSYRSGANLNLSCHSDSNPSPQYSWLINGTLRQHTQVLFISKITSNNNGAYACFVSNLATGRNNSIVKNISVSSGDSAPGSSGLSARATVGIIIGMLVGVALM

Molecule: CC[C@@]1(O)C(=O)OCc2c1cc1n(c2=O)Cc2c-1nc1cc(F)c(C)c3c1c2[C@@H](N)CC3 [PAYLOAD, (1S,9S)-1-Amino-9-ethyl-5-fluoro-1,2,3,9,12,15-hexahydro-9-hydroxy-4-methyl-10H,13H-benzo(de)pyrano(3′,4′:6,7)indolizino(1,2-b)quinoline-10,13-dione]
- Emax [1]: -92%

Molecule: Labetuzumab govitecan
- stability of the linker structure [2]: significant instability

Molecule: SAR408701: Sanofi anti-CEACAM5 ADC: SAR408377 linked to DM4 via SPDB linker
- side effects [3]: toxic side effects on several organs and tissues including the cornea of the eye

Molecule: hmn-14: known anti-CEACAM5 antibody as in labetuzumab govitecan; HC SEQ ID NO: 27, LC SEQ ID NO: 28
- cross-reactivity with CEACAM5 from Macaca fascicularis [4]: not cross-reacting

B1: rb8G4: human/rabbit chimeric variant of mAb1; HC SEQ ID NO: 29, LC SEQ ID NO: 30 (antibody)
heavy: EVQLQESGPGLVKPSQTLSLTCTVSDGSVSRGGYYLTWIRQHPGKGLEWIGYIYYSGSTYFNPSLRSRVTMSVDTSKNQFSLKLSSVTAADTAVYYCARGIAVAPFDYWGQGTLVTVSSQPKAPSVFPLAPCCGDTPSSTVTLGCLVKGYLPEPVTVTWNSGTLTNGVRTFPSVRQSSGLYSLSSVVSVTSSSQPVTCNVAHPATNTKVDKTVAPSTCSKPTCPPPELLGGPSVFIFPPKPKDTLMISRTPEVTCVVVDVSEDDPEVQFTWYINNEQVRTARPPLREQQFNSTIRVVSTLPIAHEDWLRGKEFKCKVHNKALPAPIEKTISKARGQPLEPKVYTMGPPREELSSRSVSLTCMINGFYPSDISVEWEKNGKAEDNYKTTPAVLDSDGSYFLYSKLSVPTSEWQRGDVFTCSVMHEALHNHYTQKSISRSPGK
light: EIVLTQSPATLSVSPGERATLSCRTSQSVRSNLAWYQQKPGQAPRLLIYAASTRATGIPARFSGSGSGTEFTLTISSLQSEDFAVYYCQQYTNWPFTFGPGTKVDIKRDPVAPSVLLFPPSKEELTTGTATIVCVANKFYPSDITVTWKVDGTTQQSGIENSKTPQSPEDNTYSLSSTLSLTSAQYNSHSVYTCEVVQGSASPIVQSFNRGDC
modifications: HC of rb8G4; LC of rb8G4
- Pearson correlation coefficient of IHC staining signal with mRNA expression [5]: 0.88
